The text below walks through data of paper PMC4001326, “DNA polymerase V activity is autoregulated by a novel intrinsic DNA-dependent ATPase”.

Where “and” joins values, the source holds several entries; their conditions need not be identical. Equal values may be shown once.

Data set [1] has as its target pol V Mut E38K/K72R K72R;RecA:E38K (Escherichia coli (pol V from strain RW644)) (UniProt P0AG11+P04152+P0A7G6). In words: fluorescence anisotropy. Conditions: fluorescein-dT replacing T44 (from parent S5); 20 mM Tris-HCl pH 7.5, 25 mM Na glutamate, 8 mM MgCl2, 8 mM DTT, 4% glycerol, 0.1 mM EDTA, 37 C; 50 nM labeled hairpin; 500 uM ATP or ATPgS (titrations to …).
Data set [2] concerns the target pol V Mut E38K/ΔC17 del17-17;RecA:E38K (Escherichia coli (pol V from strain RW644)) (UniProt P0AG11+P04152+P0A7G6). In words: fluorescence anisotropy. As to conditions: fluorescein-dT replacing T44 (from parent S5); 20 mM Tris-HCl pH 7.5, 25 mM Na glutamate, 8 mM MgCl2, 8 mM DTT, 4% glycerol, 0.1 mM EDTA, 37 C; 50 nM labeled hairpin; 500 uM ATP or ATPgS (titrations to …). (Fluorescence polarisation rises when a labelled molecule tumbles more slowly, as on binding a larger partner.)

The target of data set [3] is T1, pol V Mut WT (UmuD'2C-RecA-ATP) (Escherichia coli (pol V from strain …, UniProt P0AG11;P04152;P0A7G6 25-139;1-422;2-353)). In words: fluorescence anisotropy; 500 uM ATPgS; 20 mM Tris-HCl pH 7.5, 25 mM Na glutamate, 8 mM MgCl2, 8 mM DTT, 4% glycerol, 0.1 mM EDTA, 37 C; 50 nM labeled hairpin; 500 uM ATP or ATPgS (titrations to 750 uM). Conditions: protein: recombinant, tags: His (pol V), chain copies: 2;1;1, label: fluorescein (internal dT), 18 bp stem, 5' overhang 12 nt.

The target of data set [4] is T1, pol V Mut WT (UmuD'2C-RecA-ATP). Nature of the data set: fluorescence anisotropy; ATPgS titration, saturating at about 220 uM; 20 mM Tris-HCl pH 7.5, 25 mM Na glutamate, 8 mM MgCl2, 8 mM DTT, 4% glycerol, 0.1 mM EDTA, 37 C; 50 nM labeled hairpin; 500 uM ATP or ATPgS (titrations to 750 uM). Conditions: protein: recombinant, tags: His (pol V), chain copies: 2;1;1, label: fluorescein (internal dT), 18 bp stem, 5' overhang 3 nt by name.

As a reminder, the Kd is the equilibrium constant for the complex coming apart. “CGAAACAGGAAAGCAGTTAGCGCATTCAGCTCATACTGCTGAATGCGCTAACTGC [Fluorescein 12 nt oh HP]”: the Kd in data set [1] is 920 nM; in data set [2], 312 nM and 469 nM.

B1: Fluorescein 12 nt oh HP (structured_DNA)
DNA: CGAAACAGGAAAGCAGTTAGCGCATTCAGCTCATACTGCTGAATGCGCTAACTGC
modifications: fluorescein-dT replacing T44 (from parent S5)
Consider B1, for which the Kd in data set [3] is 876 ± 52 nM. Regarding AGAGCAGTTAGCGCATTCAGCTCATACTGCTGAATGCGCTAACTGC (structured_DNA, fluorescein-dT replacing T17 (from parent S1)) [Fluorescein 3 nt oh HP], the binding result in data set [4] was “binds”.
